Results: publication PMC3575853 (Nucleic Acids Research, 2013)

B1: RPA32 residues 43-171 (32D subunit of the human RPA DNA-binding core, RPA-DBC) (domain or fragment)
chain: AQHIVPCTISQLLSATLVDEVFRIGNVEISQVTIVGIIRHAEKAPTNIVYKIDDMTAAPMDVRQWVDTDDTSSENTVVPPETYVKVAGHLRSFQNKKSLVAFKIMPLEDMNEFTTHILEVINAHMVLSK

What was measured:
[1] = target: RPA70 residues 181-616 (70ABC subunit of the human RPA DNA-binding core, RPA-DBC) (human, UniProt P27694 181-616); assay: SEC-MALS
[2] = target: RPA-DBC (RPA70ABC/32D/14 DNA-binding core) (human, UniProt P27694;P15927;P35244 181-616;43-171;1-121); assay: SANS / gel filtration
Sequence of RPA-DBC (RPA70ABC/32D/14 DNA-binding core) (P27694 181-616, chain 1 of 2): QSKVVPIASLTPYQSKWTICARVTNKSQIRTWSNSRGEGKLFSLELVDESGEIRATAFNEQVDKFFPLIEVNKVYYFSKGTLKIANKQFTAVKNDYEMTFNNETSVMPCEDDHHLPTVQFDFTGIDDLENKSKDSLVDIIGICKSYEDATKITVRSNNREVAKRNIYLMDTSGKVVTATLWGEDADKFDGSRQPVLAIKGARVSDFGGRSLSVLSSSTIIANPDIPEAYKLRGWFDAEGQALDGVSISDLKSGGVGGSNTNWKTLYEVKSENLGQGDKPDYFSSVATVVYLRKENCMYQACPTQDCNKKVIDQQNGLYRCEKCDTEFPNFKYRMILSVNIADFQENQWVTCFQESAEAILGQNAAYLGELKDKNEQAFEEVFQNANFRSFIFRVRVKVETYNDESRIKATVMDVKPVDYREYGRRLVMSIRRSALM
Sequence of RPA-DBC (RPA70ABC/32D/14 DNA-binding core) (P35244 whole entry, chain 3 of 2): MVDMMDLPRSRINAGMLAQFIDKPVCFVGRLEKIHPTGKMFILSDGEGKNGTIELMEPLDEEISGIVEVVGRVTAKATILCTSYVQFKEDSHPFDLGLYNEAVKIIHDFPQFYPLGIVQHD

Sequence of RPA70 residues 181-616 (70ABC subunit of the human RPA DNA-binding core, RPA-DBC) (P27694 181-616): as the sequence (P27694 181-616, chain 1 of 2) above

Binder | binding result [1] | binding result [2]
B1 | binds | 
TTTTTTTTTTTTTTTTTTTTTTTTTTTTTT (ssDNA) [dT30] |  | binds
